Results from patent US20250034271A1.

Columns and labels:
[1] = target: mouse CD40 (mCD40) on transfected CHO cells (mouse) (UniProt P27512); assay: flow cytometry, CHO-mCD40 cells, negative control, anti-mIgG Fc-FITC; x: Anti-mouse-IgG-Fc-FITC, y: SSC-H
[2] = target: monkey (rhesus macaque) CD40 (rmCD40) on transfected CHO cells (rhesus macaque); assay: flow cytometry, CHO-rmCD40 cells, negative control, anti-mIgG Fc-FITC; x: Anti-mouse-IgG-Fc-FITC, y: SSC-H
[3] = target: chimeric (mouse and human) CD40 (chiCD40) on transfected CHO cells (chimeric (mouse and human)); assay: flow cytometry, CHO-chiCD40 cells, negative control, anti-mIgG Fc-FITC; x: Anti-mouse-IgG-Fc-FITC, y: SSC-H
Sequence of chimeric (mouse and human) CD40 (chiCD40) on transfected CHO cells (chimeric (mouse and human)) (chain, as listed by the source mutant limits assumed): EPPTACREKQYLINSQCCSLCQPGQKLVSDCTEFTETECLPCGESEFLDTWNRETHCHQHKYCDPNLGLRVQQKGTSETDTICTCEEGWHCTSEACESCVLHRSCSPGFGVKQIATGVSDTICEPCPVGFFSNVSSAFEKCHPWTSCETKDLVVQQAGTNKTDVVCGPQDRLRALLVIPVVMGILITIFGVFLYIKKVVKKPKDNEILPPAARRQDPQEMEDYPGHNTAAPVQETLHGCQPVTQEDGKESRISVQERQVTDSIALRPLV

Sequence of monkey (rhesus macaque) CD40 (rmCD40) on transfected CHO cells (rhesus macaque) (P25942 other isoform, or with tags, fused parts or gaps limits assumed): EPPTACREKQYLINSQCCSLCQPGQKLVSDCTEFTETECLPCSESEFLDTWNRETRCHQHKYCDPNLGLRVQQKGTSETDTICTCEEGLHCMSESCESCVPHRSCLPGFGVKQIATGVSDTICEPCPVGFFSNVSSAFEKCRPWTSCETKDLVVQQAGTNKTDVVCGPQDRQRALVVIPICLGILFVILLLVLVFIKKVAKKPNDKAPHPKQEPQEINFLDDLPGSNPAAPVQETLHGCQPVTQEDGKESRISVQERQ
Sequence of mouse CD40 (mCD40) on transfected CHO cells (mouse) (P27512 20-289 limits assumed): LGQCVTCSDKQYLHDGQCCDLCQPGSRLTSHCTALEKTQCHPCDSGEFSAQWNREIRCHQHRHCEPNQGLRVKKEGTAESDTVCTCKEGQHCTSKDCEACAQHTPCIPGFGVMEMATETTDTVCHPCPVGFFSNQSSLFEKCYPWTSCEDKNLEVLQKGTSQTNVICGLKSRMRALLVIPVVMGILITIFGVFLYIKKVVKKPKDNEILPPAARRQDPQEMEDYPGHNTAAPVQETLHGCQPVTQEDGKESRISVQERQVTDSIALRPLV

% cells in the Anti-mouse-IgG-Fc-FITC positive gate [1]: 1.01%
% cells in the Anti-mouse-IgG-Fc-FITC positive gate [2]: 1.19%
% cells in the Anti-mouse-IgG-Fc-FITC positive gate [3]: 1.19%
Substance: NC
